T1: synthetic LEAP2 peptide (mature peptide of human LEAP2) (human)
T1 peptide: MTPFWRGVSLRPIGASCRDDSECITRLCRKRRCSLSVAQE

B1: anti-LEAP2 monoclonal antibody M1/M2 (antibody, V domains shown)
VH: EVQLQQSGTVLARPGASVKMSCKASGYTFTSYWMHWVKQRPGQGLEWIGAIYPGNSDTSYKQKFKGKAKLTAVTSASTVYMELSSLTDEDSAVYYCTYGKEEYLFAMDYWGQGTSVTVSS
VL: not shown
B2: anti-LEAP2 monoclonal antibody M18 (antibody, V domains shown)
VH: EIQLQQSGPELMKPGASVKISCKASGYSFTNYYIHWVKQSHGKSLEWIGYIDPFNGGTNYNQKFKGKATLTVDKSSSTAYMHLSSLTFEDSAVYYCARRGYYYGFTYWGQGTLVTVSA
VL: DIVLTQSPASLAVSLGQRATISCKASQSVDYDGDSYMNWYQQKPGQPPKLLIYTASNLESGIPARFSGSGSGTDFTLNIHPVEEEDAATYYCQQSNEDPYTFGGGTKLEIK

Molecular target: T1, synthetic LEAP2 peptide (mature peptide …)
Assay: cell-based or functional assay

Binder	EC50 of blocking LEAP2 inhibition of GHSR activity (antibody mixed with LEAP2, antagonist format, GHSR-stable cell line) [µM]
B1	0.17
B2	0.68

From patent US20210101973A1 (NGM BIOPHARMACEUTICALS, published 2021)
